B1: GpH7-A5/GpH7-B3 variant L234_06M/GpL16-k0 (antibody, human IgG1, kappa)
heavy 1: not shown
heavy 2: not shown
light: DIVMTQSPLSLPVTPGEPASISCQASESLVHSNRNTYLHWYLQKPGQSPQLLIYKVSNRFSGVPDRFSGSGSGTDFTLKISRVEAEDVGVYYCSQNTHVPPTFGQGTKVEIERTVAAPSVFIFPPSDEQLKSGTASVVCLLNNFYPREAKVQWKVDNALQSGNSQESVTEQDSKDSTYSLSSTLTLSKADYEKHKVYACEVTHQGLSSPVTKSFNRGEC
notes: also called He Ab L234_06M
B2: GpH7-A5/GpH7-B3 variant I336_06M/GpL16-k0 (antibody, human IgG1, kappa)
heavy 1: not shown
heavy 2: not shown
light: B1 light
notes: also called He Ab I336_06M
B3: GpH7-A5/GpH7-B3 variant E333_11K/GpL16-k0 (antibody, human IgG1, kappa)
heavy 1: not shown
heavy 2: not shown
light: B1 light
notes: also called He Ab E333_11K
B4: GpH7-A5/GpH7-B3 variant P238_06M/GpL16-k0 (antibody, human IgG1, kappa)
heavy 1: not shown
heavy 2: not shown
light: B1 light
notes: also called He Ab P238_06M
B5: GpH7-A5/GpH7-B3 variant K326_18N/GpL16-k0 (antibody, human IgG1, kappa)
heavy 1: not shown
heavy 2: not shown
light: B1 light
notes: also called He Ab K326_18N
B6: GpH7-A5/GpH7-B3 variant H268_08L/GpL16-k0 (antibody, human IgG1, kappa)
heavy 1: not shown
heavy 2: not shown
light: B1 light
notes: also called He Ab H268_08L
B7: GpH7-A5/GpH7-B3 variant I336_03V/GpL16-k0 (antibody, human IgG1, kappa)
heavy 1: not shown
heavy 2: not shown
light: B1 light
notes: also called He Ab I336_03V
B8: GpH7-A5/GpH7-B3 variant E333_04F/GpL16-k0 (antibody, human IgG1, kappa)
heavy 1: not shown
heavy 2: not shown
light: B1 light
notes: also called He Ab E333_04F
B9: GpH7-A5/GpH7-B3 variant E333_12R/GpL16-k0 (antibody, human IgG1, kappa)
heavy 1: not shown
heavy 2: not shown
light: B1 light
notes: also called He Ab E333_12R
B10: GpH7-A5/GpH7-B3 variant E333_08L/GpL16-k0 (antibody, human IgG1, kappa)
heavy 1: not shown
heavy 2: not shown
light: B1 light
notes: also called He Ab E333_08L
B11: GpH7-A5/GpH7-B3 variant I336_18N/GpL16-k0 (antibody, human IgG1, kappa)
heavy 1: not shown
heavy 2: not shown
light: B1 light
notes: also called He Ab I336_18N
B12: GpH7-A5/GpH7-B3 variant P238_03V/GpL16-k0 (antibody, human IgG1, kappa)
heavy 1: not shown
heavy 2: not shown
light: B1 light
notes: also called He Ab P238_03V
B13: GpH7-A5/GpH7-B3 variant E333_13S/GpL16-k0 (antibody, human IgG1, kappa)
heavy 1: not shown
heavy 2: not shown
light: B1 light
notes: also called He Ab E333_13S
B14: GpH7-A5/GpH7-B3 variant L328_19Q/GpL16-k0 (antibody, human IgG1, kappa)
heavy 1: not shown
heavy 2: not shown
light: B1 light
notes: also called He Ab L328_19Q
B15: GpH7-A5/GpH7-B3 variant I336_10E/GpL16-k0 (antibody, human IgG1, kappa)
heavy 1: not shown
heavy 2: not shown
light: B1 light
notes: also called He Ab I336_10E
B16: GpH7-A5/GpH7-B3 variant K334_12R/GpL16-k0 (antibody, human IgG1, kappa)
heavy 1: not shown
heavy 2: not shown
light: B1 light
notes: also called He Ab K334_12R
B17: GpH7-A5/GpH7-B3 variant K334_10E/GpL16-k0 (antibody, human IgG1, kappa)
heavy 1: not shown
heavy 2: not shown
light: B1 light
notes: also called He Ab K334_10E
B18: GpH7-A5/GpH7-B3 variant L234_07I/GpL16-k0 (antibody, human IgG1, kappa)
heavy 1: not shown
heavy 2: not shown
light: B1 light
notes: also called He Ab L234_07I
B19: GpH7-A5/GpH7-B3 variant K326_12R/GpL16-k0 (antibody, human IgG1, kappa)
heavy 1: not shown
heavy 2: not shown
light: B1 light
notes: also called He Ab K326_12R
B20: GpH7-A5/GpH7-B3 variant E333_15Y/GpL16-k0 (antibody, human IgG1, kappa)
heavy 1: not shown
heavy 2: not shown
light: B1 light
notes: also called He Ab E333_15Y
B21: GpH7-A5/GpH7-B3 variant E333_07I/GpL16-k0 (antibody, human IgG1, kappa)
heavy 1: not shown
heavy 2: not shown
light: B1 light
notes: also called He Ab E333_07I
B22: GpH7-A5/GpH7-B3 variant H268_07I/GpL16-k0 (antibody, human IgG1, kappa)
heavy 1: not shown
heavy 2: not shown
light: B1 light
notes: also called He Ab H268_07I
B23: GpH7-A5/GpH7-B3 variant L328_10E/GpL16-k0 (antibody, human IgG1, kappa)
heavy 1: not shown
heavy 2: not shown
light: B1 light
notes: also called He Ab L328_10E
B24: GpH7-A5/GpH7-B3 variant K326_16H/GpL16-k0 (antibody, human IgG1, kappa)
heavy 1: not shown
heavy 2: not shown
light: B1 light
notes: also called He Ab K326_16H
B25: GpH7-A5/GpH7-B3 variant E333_05P/GpL16-k0 (antibody, human IgG1, kappa)
heavy 1: not shown
heavy 2: not shown
light: B1 light
notes: also called He Ab E333_05P
B26: GpH7-A5/GpH7-B3 variant H268_20W/GpL16-k0 (antibody, human IgG1, kappa)
heavy 1: not shown
heavy 2: not shown
light: B1 light
notes: also called He Ab H268_20W
B27: GpH7-A5/GpH7-B3 variant H268_14T/GpL16-k0 (antibody, human IgG1, kappa)
heavy 1: not shown
heavy 2: not shown
light: B1 light
notes: also called He Ab H268_14T
B28: GpH7-A5/GpH7-B3 variant K334_20W/GpL16-k0 (antibody, human IgG1, kappa)
heavy 1: not shown
heavy 2: not shown
light: B1 light
notes: also called He Ab K334_20W
B29: GpH7-A5/GpH7-B3 variant L328_03V/GpL16-k0 (antibody, human IgG1, kappa)
heavy 1: not shown
heavy 2: not shown
light: B1 light
notes: also called He Ab L328_03V

Target: T1, FcγRIa (human, UniProt P12314 16-292)
T1 construct: extracellular domain; also called FcgRI; 1a
T1 sequence (P12314 16-292): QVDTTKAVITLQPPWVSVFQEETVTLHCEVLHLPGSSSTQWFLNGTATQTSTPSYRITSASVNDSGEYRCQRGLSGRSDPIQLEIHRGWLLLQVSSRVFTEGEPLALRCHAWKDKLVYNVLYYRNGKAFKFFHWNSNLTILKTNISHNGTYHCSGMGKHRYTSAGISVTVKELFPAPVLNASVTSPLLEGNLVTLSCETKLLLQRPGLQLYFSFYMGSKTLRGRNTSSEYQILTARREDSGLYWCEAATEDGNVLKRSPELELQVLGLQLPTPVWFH
Test: SPR (Biacore); He Ab relative to HeCon Ab = 100
Experimental: Analysis of interaction between objective antibody and the FcγR was carried out using Biacore T100 (GE Healthcare). HBS-EP+ (GE Healthcare) was used as the running buffer, and the measurement temperature was set to 25° C. Chips produced by immobilizing the antigen peptide by the amine coupling method to a Series S Sencor Chip CM5 (GE Healthcare), or alternatively, chips produced by allowing preliminarily biotinylated antigen peptides to interact with and immobilize onto a Series S Sensor Chip SA (certified) (GE Healthcare) were used. Antibodies of interest were captured onto an antigen peptide-immobilized chip, and allowed to interact to each FcγR diluted with running buffer. To regenerate and repeatedly use the chip, the antibodies captured on the chip were washed off by reacting 10 mM glycine-HCl, pH 1.5.

He/Con_1a	Binder
104 % of control	B1
108 % of control	B2
102 % of control	B3
102 % of control	B4
105 % of control	B5
107 % of control	B6
105 % of control	B7
102 % of control	B8
102 % of control	B9
102 % of control	B10
108 % of control	B11
100 % of control	B12
103 % of control	B13
101 % of control	B14
108 % of control	B15
104 % of control	B16
110 % of control	B17
103 % of control	B18
100 % of control	B19
101 % of control	B20
102 % of control	B21
108 % of control	B22
101 % of control	B23
103 % of control	B24
102 % of control	B25
107 % of control	B26
112 % of control	B27
106 % of control	B28
101 % of control	B29

Reference: US20150344570A1 (published 2015)
